Data: patent US9827292B2, “Use of KGF in the treatment of menopausal disorders” (Università degli Studi di Roma “La Sapienza”, priority 2012, dated 2017)

B1: keratinocyte growth factor (protein, listed as Homo sapiens)
chain: MHKWILTWILPTLLYRSCFHIICLVGTISLACNDMTPEQMATNVNCSSPERHTRSYDYMEGGDIRVRRLFCRTQWYLRIDKRGKVKGTQEMKNNYNIMEIRTVAVGIVAIKGVESEFYLAMNKEGKLYAKKECNEDCNFKELILENHYNTYASAKWTHNGGEMFVALNQKGIPVRGKKTKKEQKTAHFLPMAIT
notes: human recombinant KGF (Upstate Biotechnology)

Legend:
[1] = system: KGFR; assay: KGFR mRNA expression by real-time PCR in MCF-7 cells; assay type: cell-based, human; conditions: E2 20 ng/ml, 24 h, normalised to 18s, FIG. 3B
Description: The oestrogen receptor α-positive MCF-7 human breast adenocarcinoma cell line, acquired from American Type Culture Collection (no. HTB-22, ATCC-LGC Promochem, Teddington, UK), was cultured in Dulbecco's modified eagle's medium (DMEM; Invitrogen, Karlsruhe, Germany), supplemented with 10% foetal bovine serum (FBS; Invitrogen) and antibiotics. Primary cultures of human oestrogen-sensitive keratinocytes (KCs) were established from 1 cm^2 full-thickness mucosal biopsy of the vaginal vestibule. Following enzymatic dissociation, the keratinocytes were seeded onto culture plates coated with collagen IV (10 mg/ml), as previously reported [Panici et al, 2007], and were maintained in basal medium of the keratinocytes (KBM, Lonza) supplemented with aliquots of KGM (Lonza), with medium change twice a week. […]
The cells were harvested and the total RNA was extracted with the use of TRIzol reagent (Invitrogen). cDNA was generated with oligo (dT) from 1 μg of RNA using the SuperScript III reverse transcriptase kit (Invitrogen). After reverse transcription, the abundance of KGFR in MCF-7 cells treated and untreated with E2 was quantified by Q-RT-PCR. […] Relative quantification was performed using mRNA 18s as an endogenous control. The data were expressed as a rise of mRNA of KGFR compared to the control.

[2] = system: vaginal epithelium; assay: Vaginal atrophy model in ovariectomised CD1 mice, local hydrogel treatment, histology; assay type: in vivo, mouse; conditions: for cornification of vaginal epithelium (hematoxylin and eosin) / stratification of the vaginal epithelium and hyperkeratosis (hematoxylin and eosin): low and high doses, 60 days; for cornification of vaginal epithelium (hematoxylin and eosin): not in vehicle group, FIG. 8A; for stratification of the vaginal epithelium and hyperkeratosis (hematoxylin and eosin): versus vehicle only, FIG. 7B
Description: (§1) The mouse strain CD1 was used in this study (Charles Rivers). The mice were held in a standard housing for laboratory animals with controlled lighting (12 h/day) and temperature (25±1° C.) and were provided with food and water ab libitum. All the experimental protocols concerning animals were in line with the Guidelines of Sapienza University for the care and use of laboratory animals and were approved by the Ethical Committee of the aforesaid institution. Forty female mice were subjected to an ovariectomy for the purpose of inducing vaginal atrophy and were administered a diet of Altromin C1000 without phytoestrogens (Altromin, Lage, Germany) for the duration of the experiments. After 30 days, the mice were treated locally, introducing daily into the vaginal canal 25 μl of hydrogel loaded with KGF (10 or 30 ng/day) or with E2 (30 ng/day or 1 μg/day). A control group was treated only with hydrogel. After 60 days of treatment, the mice were killed and the vaginas were immediately explanted, fixed in formalin and processed for histological analysis.
Serial sections of the vaginal mucus obtained from four groups of mice were stained with hematoxylin/eosin, placed permanently under a glass plate and analysed histologically. The thickness and the strata of epithelial cells of the vagina were then determined in three animals for each group, in three images for each animal (10× enlargement). Mean values were obtained from five measurements of each image. For the purpose of quantifying the thickness of the vaginal epithelium, the vertical distance between the lower surface of the cells in the stratum basale and the apical surface of the cells in the stratum superficiale was measured with the aid of NIH Image J v 1.56 (National Institutes of Health, Bethesda, Md.), and denoted as thickness. To estimate the number of vaginal epithelial layers, the layer of cells covering five contiguous basal cells was counted in the sample.
Serial sections of the vaginal mucus obtained from the four groups of mice were analysed for the expression of PCNA (Proliferating Cell Nuclear Antigen, a marker of cell proliferation) by means of immunohistochemistry. The sections were elaborated using the technique of avidin-biotin-peroxidase complex (DAKO, Glostrup, Denmark) and incubated with mouse anti-A-rat-PCNA monoclonal antibody (clone P10, 1:4000) (Abcam, Cambridge, UK), which recognises proliferant cells.
All the animals enrolled in the study were fed with a special diet devoid of oestrogens (special altromin C1000 phytoestrogen-free diet). The mice subject to an ovariectomy were then divided into […]: one group received no treatment; one group received only the vehicle; one group received the vehicle+E2 30 ng/day; one group received the vehicle+E2 1 μg/day; one group received the vehicle+KGF 10 ng/day; and one group received the vehicle+KGF 30 ng/day.
The animals were killed and the vaginas removed and immediately fixed in formalin and processed for histology. Vaginal epithelium of the treated mice was analysed histologically by means of hematoxylin/eosin and was compared with the epithelium of the group of mice not subjected to ovariectomy (FIGS. 7B and 8A). The criteria adopted in order to determine the trophism of the vaginal mucus were the thickness (evidenced by counting the number of epithelial layers present and by measuring the thickness of the epithelium in μm and also by means of the ratio between area of the epithelial layer and length of the basal membrane) (FIG. 8B) and the proliferative ability of the keratinocytes (determined by means of analyses of the expression of PCNA, a marker of cell proliferation) (FIG. 9).

[3] = Serum concentrations of E2 and KGF by ELISA in treated mice; assay type: in vivo, mouse; conditions: daily treatment for 60 days, ovariectomised mice, FIG. 7A
Description: as §1
The concentrations of E2 and KGF in the serum of treated mice were measured using an ELISA standard kit (R & D Systems, Minneapolis, Minn., USA). The sensitivity of the ELISA assay was ≧10 pg/mL. Standard preparations of E2 or KGF were used as internal controls. The values are presented as mean±standard deviation. […]

Row | Molecule | KGFR mRNA expression compared to untreated cells [1] [fold increase] | cornification of vaginal epithelium (hematoxylin and eosin) [2] | stratification of the vaginal epithelium and hyperkeratosis (hematoxylin and eosin) [2] | release into the bloodstream (serum levels by ELISA) after local vaginal treatment [3] | increase in epithelial thickness, KGF versus E2 ([2]; KGF at 30 ng/25 ul and E2 at 1 ug/25 ul, FIG. 8B) | epithelium lubrication / mucinous (PAS-positive) cells ([2]; topical KGF, PAS staining, FIG. 9B) | vaginal thinning / epithelial cell proliferation ([2]; topical KGF, ovariectomised mice, FIG. 9)
1 | C[C@]12CC[C@@H]3c4ccc(O)cc4CC[C@H]3[C@@H]1CC[C@@H]2O [E2, 17β-oestradiol] | 2.2 | Cornificated vaginal epithelium was observed | significant induction of stratification of the vaginal epithelium and hyperkeratosis | reached the bloodstream even after treatment at low doses | – | – | –
2 | B1 | – | Cornificated vaginal epithelium was observed | significant induction of stratification of the vaginal epithelium and hyperkeratosis | – | same increase in epithelial thickness | restore epithelium lubrication through stimulation of mucinous cells | able to counteract vaginal thinning by stimulating epithelial cells proliferation
